The results in this text go back to patent US6998239 (CHEMOCENTRYX, dated 2006).

The target of assay [1] is T1, human CCX CKR with N-terminal Flag epitope, stably expressed on HEK293 cells (human, UniProt Q9NPB9 1-350).
T1 construct: also called HEK293-CCX CKR cells
T1 sequence: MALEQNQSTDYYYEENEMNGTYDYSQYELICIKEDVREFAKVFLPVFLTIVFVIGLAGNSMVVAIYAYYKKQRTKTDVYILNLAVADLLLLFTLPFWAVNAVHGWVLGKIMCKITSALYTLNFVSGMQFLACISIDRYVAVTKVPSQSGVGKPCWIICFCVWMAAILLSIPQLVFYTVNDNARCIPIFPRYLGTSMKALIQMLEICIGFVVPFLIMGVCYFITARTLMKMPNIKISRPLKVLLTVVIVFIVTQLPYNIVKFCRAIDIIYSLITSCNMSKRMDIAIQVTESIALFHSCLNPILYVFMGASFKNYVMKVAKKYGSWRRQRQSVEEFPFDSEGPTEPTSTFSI
The assay can be described thus: radioligand binding competition on CCX CKR stable transfectants (similar experiments).

Assay [2] has as its target T1, human CCX CKR with N-terminal Flag …. The assay can be described thus: displacement of 125I-ELC or 125I-TECK from CCX CKR transfectants, 200 nM cold chemokine.
Assay [3] has the same target. The assay can be described thus: radioligand binding competition on CCX CKR stable transfectants, Scatchard transformation.

B1: murine CTACK (ligand, UniProt Q9Z1X0 26-120, looked up)
chain: LPLPSSTSCCTQLYRQPLPSRLLRRIVHMELQEADGDCHLQAVVLHLARRSVCVHPQNRSLARWLERQGKRLQGTVPSLNLVLQKKMYSHPQQQN
notes: also called mCTACK; CCL27
B1 came in with a Kd in assay [1] of about 9 nM.

B2: human TECK (thymus expressed chemokine) (ligand, UniProt O15444 24-150, looked up)
chain: QGVFEDCCLAYHYPIGWAVLRRAWTYRIQEVSGSCNLPAAIFYLPKRHRKVCGNPKSREVQRAMKLLDARNKVFAKLHHNTQTFQAGPHAVKKLSSGNSKLSSSKFSNPISSSKRNVSLLISANSGL
modifications: 125I label where used as radioligand
For the molecule B2, the binding result in assay [2] is listed as “binds”.

B3: murine ELC (ligand, UniProt O70460 26-108, looked up)
chain: GANDAEDCCLSVTQRPIPGNIVKAFRYLLNEDGCRVPAVVFTTLRGYQLCAPPDQPWVDRIIRRLKKSSAKNKGNSTRRSPVS
As for B3, in assay [2], the binding result is reported as “binds”.

B4: mMIP-1gamma (murine macrophage inflammatory protein 1 gamma) (ligand, UniProt P51670 22-122, looked up)
chain: QITHATETKEVQSSLKAQQGLEIEMFHMGFQDSSDCCLSYNSRIQCSRFIGYFPTSGGCTRPGIIFISKRGFQVCANPSDRRVQRCIERLEQNSQPRTYKQ
notes: also called mMIP-1γ; CCF18
For B4, in assay [2], the binding result was “binds”.

B5: human ELC (EBI1 ligand chemokine) (ligand, UniProt Q99731 22-98, looked up)
chain: GTNDAEDCCLSVTQKPIPGYIVRNFHYLLIKDGCRVPAVVFTTLRGRQLCAPPDQPWVERIIQRLQRTSAKMKRRSS
modifications: 125I label where used as radioligand
notes: also called MIP-3beta; MIP3beta
With B5, in assay [3], the binding result is listed as “binds”.

B6: murine TECK (ligand, UniProt O35903 24-144, looked up)
chain: QGAFEDCCLGYQHRIKWNVLRHARNYHQQEVSGSCNLRAVRFYFRQKVVCGNPEDMNVKRAMRILTARKRLVHWKSASDSQTERKKSNHMKSKVENPNSTSVRSATLGHPRMVMMPRKTNN
Consider B6, for which, in assay [2], the binding result is listed as “binds”.

B7: human SLC (secondary lymphoid-tissue chemokine) (ligand, UniProt O00585 24-134, looked up)
chain: SDGGAQDCCLKYSQRKIPAKVVRSYRKQEPSLGCSIPAILFLPRKRSQAELCADPKELWVQQLMQHLDKTPSPQKPAQGCRKDRGASKTGKKGKGSKGCKRTERSQTPKGP
notes: also called 6Ckine
For the molecule B7, in assay [3], the binding result is “binds”.
